Assay results published in the supplement of paper PMC7877785.
± gives the uncertainty stated by the source.

Assay: self-splicing fitness, log relative to wild type (ln ratio); higher = more splicing; Tetrahymena group I intron in knt gene, E. coli kanamycin selection, DiMSum; sequences stand for … in CUCUCU…GGAGGGAAAAGUUAUCAGGCAUGCACCUGGUAGCUAGUCUUUAAACCAAUAGAUUGCAUCGGUUUAAAAGGCAAGACCGUCAAAUUGCGGGAAAGGGGUCAACAGCCGUUCAGUACCAAGUCUCAGGGGAAACUUUGAGAUGGCCUUGCAAAGGGUAUGGUAAUAAGCUGACGGACAUGGUCCUAACCACGCAGCCAAGUCCUAAGUCAACAGAUCUUCUGUUGAUAUGGAUGCAGUUCACAGACUAAAUGUCGGUCGGGGAAGAUGUAUUCUUCUCAUAAGAUAUAGUCGGACCUCUCCUUAAUGGGAGCUAGCGGAUGAAGUGAUGCAACACUGGAGCCGCUGGGAACUAAUUUGUAUGCGAAAGUAUAUUGAUUAGUUUUGGAGUACUCGUGGUCG
Outline: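 DiMSum derived fitness as the error-weighted combination of fold changes across replicates, kanamycin versus no kanamycin, normalised to wild type. E. coli BL21(DE3) held the library, which randomised all eight P1ex-region intron nucleotides within the knt kanamycin-resistance gene on pET-22b(+). Six replicate transformations grew overnight at 37°C or 30°C on LB agar with or without 25 μg/mL kanamycin, also containing 100 μg/mL carbenicillin, 50 μM IPTG and 0.2% rhamnose, and pooled colonies were amplicon-sequenced on an Illumina HiSeq 2500.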

Sequence | self-splicing fitness (ln) (30 °C) | self-splicing fitness (ln) (37 °C)
GACGAGCAAUAUUACGCCUU | -3.3 ± 0.4 | -1.48 ± 0.24
AGAAAGCAAUAUUACGGCAU | -0.587 ± 0.051 | -0.525 ± 0.064
AUCCAGCAAUAUUACGUUGC | -3.87 ± 0.14 | -2.86 ± 0.15
GAGAAGCAAUAUUACGUUGA | -3.28 ± 0.21 | -1.19 ± 0.17
AUUCAGCAAUAUUACGGUGA | -0.556 ± 0.097 | -0.526 ± 0.086
UGCAAGCAAUAUUACGAGAC | -4.03 ± 0.46 | -2.05 ± 0.34
UGUUAGCAAUAUUACGAACU | -0.445 ± 0.15 | 0.216 ± 0.18
GGGAAGCAAUAUUACGAUCA | -0.768 ± 0.33 | -0.0795 ± 0.35
GGCGAGCAAUAUUACGGUGA | -2.82 ± 0.089 | -1.39 ± 0.081
AGCGAGCAAUAUUACGCAUG | -3.33 ± 0.22 | -1.48 ± 0.18
CCCGAGCAAUAUUACGAGUU | -4.2 ± 0.19 | -2.29 ± 0.17
CUGGAGCAAUAUUACGUCCA | – | -2.26 ± 0.44
AACGAGCAAUAUUACGGCUU | -0.938 ± 0.076 | -0.225 ± 0.1
AGUCAGCAAUAUUACGCGCA | -0.326 ± 0.11 | 0.452 ± 0.17
CGCGAGCAAUAUUACGAUCA | -2.91 ± 0.19 | -2.04 ± 0.16
GGUAAGCAAUAUUACGUCUU | -0.148 ± 0.1 | -0.802 ± 0.12
GAUCAGCAAUAUUACGACCC | -2.02 ± 0.2 | -1.65 ± 0.29
CAAGAGCAAUAUUACGGCAU | -3.14 ± 0.23 | -2.02 ± 0.21
GAGUAGCAAUAUUACGAGAC | -3.25 ± 0.43 | -2.95 ± 0.48
UACUAGCAAUAUUACGAAAC | – | -2.1 ± 0.32
UAUCAGCAAUAUUACGUAAU | -1.62 ± 0.073 | -0.784 ± 0.077
AAGGAGCAAUAUUACGGUAG | -3.82 ± 0.29 | -2.75 ± 0.26
AGCCAGCAAUAUUACGAGCG | -1.36 ± 0.095 | -0.0302 ± 0.13
GAGCAGCAAUAUUACGCUGG | -3 ± 0.16 | -1.47 ± 0.16
AGUAAGCAAUAUUACGGCGG | -2.43 ± 0.16 | -1.66 ± 0.19

Sequence | self-splicing fitness (ln) (30 °C) | self-splicing fitness (ln) (37 °C)
AUGUAGCAAUAUUACGCGCG | -0.882 ± 0.093 | -0.464 ± 0.099
GCGCAGCAAUAUUACGUUAU | -0.78 ± 0.048 | -0.0311 ± 0.064
GCUUAGCAAUAUUACGAAAG | -1.52 ± 0.13 | -0.485 ± 0.19
AGAAAGCAAUAUUACGUUUU | -3.84 ± 0.17 | -3.06 ± 0.2
CACUAGCAAUAUUACGUCUA | -2.25 ± 0.23 | -2.52 ± 0.29
UAAUAGCAAUAUUACGUAAG | -2.47 ± 0.21 | -0.977 ± 0.15
AUGAAGCAAUAUUACGGGGG | -3.12 ± 0.24 | -2.49 ± 0.28
AACUAGCAAUAUUACGUUAC | -1.79 ± 0.13 | -1.96 ± 0.2
GUGAAGCAAUAUUACGGCCG | -1.03 ± 0.13 | -0.435 ± 0.17
UGAUAGCAAUAUUACGCGCC | -1.82 ± 0.36 | 0.00337 ± 0.21
AGUGAGCAAUAUUACGACCG | – | -0.72 ± 0.27
GAGUAGCAAUAUUACGAAAG | – | -1.2 ± 0.3
CCAGAGCAAUAUUACGCAUU | -3.53 ± 0.33 | -2.22 ± 0.2
UUAAAGCAAUAUUACGCUGA | -0.633 ± 0.098 | -0.46 ± 0.14
GAGCAGCAAUAUUACGCAGU | -3.57 ± 0.2 | -1.4 ± 0.17
GAGUAGCAAUAUUACGAUUU | -0.387 ± 0.086 | -0.312 ± 0.1
ACGAAGCAAUAUUACGGUGU | -2.71 ± 0.11 | -1.59 ± 0.095
UCUUAGCAAUAUUACGUUCG | -2.21 ± 0.11 | -1.38 ± 0.18
UUGAAGCAAUAUUACGGGUC | -3.77 ± 0.25 | -1.71 ± 0.25
UAUUAGCAAUAUUACGCCUG | -0.0456 ± 0.13 | 0.00497 ± 0.16
UCUCAGCAAUAUUACGCCGG | -2.33 ± 0.21 | –
UGAAAGCAAUAUUACGAGCA | -0.581 ± 0.089 | 0.406 ± 0.11
AUCCAGCAAUAUUACGCCGC | -4.25 ± 0.46 | -2.58 ± 0.38
UAAAAGCAAUAUUACGUACU | -0.876 ± 0.073 | -0.401 ± 0.092
